T1: PBP1B (wild type, PBP1B^46-844) (E. coli, UniProt P02919 46-844)
T1 construct: PBP1B, E. coli, residues 46-844, encoded on pDML924; Immobilised on the SPR chip as in Egan et al. 2014 / Gray et al. 2015; also called WT PBP1B; WT; source: E. coli BL21(DE3), purified (membrane extract, HisTrap, thrombin, HiTrap SP ion exchange)
T1 sequence (looked up): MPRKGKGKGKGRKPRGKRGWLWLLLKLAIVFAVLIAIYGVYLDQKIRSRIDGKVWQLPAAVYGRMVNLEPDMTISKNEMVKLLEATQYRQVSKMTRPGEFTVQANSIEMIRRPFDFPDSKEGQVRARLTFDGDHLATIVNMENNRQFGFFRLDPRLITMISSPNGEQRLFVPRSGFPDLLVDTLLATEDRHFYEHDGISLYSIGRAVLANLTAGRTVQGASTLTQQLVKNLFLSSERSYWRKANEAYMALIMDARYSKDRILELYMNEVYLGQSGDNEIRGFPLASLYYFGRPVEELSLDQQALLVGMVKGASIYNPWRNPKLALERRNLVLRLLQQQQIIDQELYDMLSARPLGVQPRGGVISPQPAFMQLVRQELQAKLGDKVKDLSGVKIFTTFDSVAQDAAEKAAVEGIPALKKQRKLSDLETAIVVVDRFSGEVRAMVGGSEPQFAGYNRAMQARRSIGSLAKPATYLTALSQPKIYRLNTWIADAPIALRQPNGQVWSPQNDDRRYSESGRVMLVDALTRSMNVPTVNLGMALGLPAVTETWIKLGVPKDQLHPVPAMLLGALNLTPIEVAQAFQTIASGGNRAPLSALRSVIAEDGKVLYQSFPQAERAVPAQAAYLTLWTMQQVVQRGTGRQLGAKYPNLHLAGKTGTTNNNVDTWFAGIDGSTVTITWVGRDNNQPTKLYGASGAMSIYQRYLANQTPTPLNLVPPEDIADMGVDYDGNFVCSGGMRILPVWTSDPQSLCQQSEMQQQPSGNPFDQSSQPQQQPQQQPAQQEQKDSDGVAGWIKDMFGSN

B1: CpoB^TPR (CpoB^139-263), C-terminal TetratricoPeptide Repeat domain of CpoB (domain or fragment, E. coli, UniProt P45955 139-263, looked up)
chain: SGNANTDYNAAIALVQDKSRQDDAMVAFQNFIKNYPDSTYLPNANYWLGQLNYNKGKKDDAAYYFASVVKNYPKSPKAADAMFKVGVIMQDKGDTAKAKAVYQQVISKYPGTDGAKQAQKRLNAM
notes: CpoB, E. coli, residues 139-263 (TPR domain), in pET28a with a thrombin cleavage site; In the PRE NMR one of the partners was 15N-labelled, the other spin labelled at random on lysines with OXYL-1-NHS; also called C-terminal TPR domain; source: E. coli BL21(DE3), purified (HisTrap, Superdex 200)
B2: UB2H domain of PBP1B (PBP1B^108–200) (domain or fragment, E. coli, UniProt P02919 108-200, looked up)
chain: GRMVNLEPDMTISKNEMVKLLEATQYRQVSKMTRPGEFTVQANSIEMIRRPFDFPDSKEGQVRARLTFDGDHLATIVNMENNRQFGFFRLDPR
notes: PBP1B, E. coli, residues 108 to 200 (UB2H domain), in pET28a with a thrombin cleavage site; [13C,15N]- or 15N-labelled for NMR; in the reciprocal PRE experiment spin labelled at random on lysines with OXYL-1-NHS; source: E. coli BL21(DE3), isotopically labelled in M9 medium, purified (HisTrap, Superdex 200)
B3: CpoB^TPR+link (CpoB^110-263) (domain or fragment, E. coli, UniProt P45955 110-263, looked up)
chain: STSGDQSGAAASTTPTADAGTANAGAPVKSGNANTDYNAAIALVQDKSRQDDAMVAFQNFIKNYPDSTYLPNANYWLGQLNYNKGKKDDAAYYFASVVKNYPKSPKAADAMFKVGVIMQDKGDTAKAKAVYQQVISKYPGTDGAKQAQKRLNAM
notes: CpoB, E. coli, residues 110-263 (inter-domain linker and TPR domain), in pET28a with a thrombin cleavage site; also called CpoB^TPR version with this linker (res. 110–263); source: E. coli BL21(DE3), purified (HisTrap, Superdex 200)

Key:
Conditions in all cases: both partners purified
[1] = target: T1, PBP1B (wild type, PBP1B^46-844); assay: SPR; PBP1B versions immobilised to the chip surface; CpoB versions injected from either 3.9 nM to 2 μM or from 78 nM to 40 μM; apparent KD by non-linear regression, at least three independent experiments
[2] = target: B1; assay: paramagnetic relaxation enhancement (PRE) NMR; 100 µM 15N-labelled protein with the partner spin labelled at random on lysines, molar ratio 1:2, 2D HN-HSQC at 850 MHz, 20°C; intensity ratio before and after reduction with sodium ascorbate; done in both directions (15N-CpoB with spin labelled UB2H, 15N-UB2H with spin labelled CpoB)
[3] = target: T1, PBP1B (wild type, PBP1B^46-844); assay: SPR; PBP1B versions immobilised to the chip surface; CpoB versions injected from either 3.9 nM to 2 μM or from 78 nM to 40 μM; apparent KD by non-linear regression, at least three independent experiments; remark: listed apart in the source

Binder: B1
Kd [1]: 4.9 µM

Binder: B2
binding result [2]: binds

Binder: B3
binding result [3]: binds
